# Data published in patent US10562947B2, “Compositions and methods for preventing or treating diseases, conditions or processes characterized by aberrant fibroblast proliferation and extracellular matrix deposition” (MOERAE MATRIX, INC., priority 2011, dated 2020).
# Experiments:
# Assay in all cases: Kinase Profiling Assay
# Assay type in all cases: biochemical
# Details in all cases: 100 μM peptide
# Tec(h) activated = biological target: T1, Tec(h) activated (Homo sapiens, UniProt P42680)
# T1 sequence (P42680 1-631): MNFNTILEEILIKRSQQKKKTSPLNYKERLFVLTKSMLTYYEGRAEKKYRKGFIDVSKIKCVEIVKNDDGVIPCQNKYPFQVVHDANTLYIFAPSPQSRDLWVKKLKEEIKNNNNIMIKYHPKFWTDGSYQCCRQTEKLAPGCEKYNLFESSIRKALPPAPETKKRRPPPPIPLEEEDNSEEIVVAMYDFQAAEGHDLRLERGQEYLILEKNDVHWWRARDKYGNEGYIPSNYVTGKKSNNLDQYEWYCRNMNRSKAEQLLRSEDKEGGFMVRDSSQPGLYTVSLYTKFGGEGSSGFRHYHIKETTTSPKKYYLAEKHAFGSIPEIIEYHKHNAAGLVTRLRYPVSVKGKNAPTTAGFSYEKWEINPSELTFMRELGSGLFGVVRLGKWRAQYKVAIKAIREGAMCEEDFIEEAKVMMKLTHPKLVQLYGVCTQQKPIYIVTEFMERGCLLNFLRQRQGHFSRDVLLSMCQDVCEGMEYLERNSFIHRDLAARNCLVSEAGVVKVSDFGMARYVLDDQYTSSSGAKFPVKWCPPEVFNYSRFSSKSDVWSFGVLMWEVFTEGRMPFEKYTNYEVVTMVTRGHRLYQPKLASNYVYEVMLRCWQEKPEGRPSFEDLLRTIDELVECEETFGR
# Summary of the method: (§1)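 MK2 inhibitory peptides were screened for specificity across a commercial panel of 266 human kinases, and each kinase activity measurement was run in duplicate.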
# cSRC(h) = cSRC(h) (Homo sapiens, UniProt P12931)
# Summary of the method: as §1
# MuSK(h) = biological target: T2, MuSK(h) (Homo sapiens, UniProt O15146)
# T2 sequence (O15146 24-869): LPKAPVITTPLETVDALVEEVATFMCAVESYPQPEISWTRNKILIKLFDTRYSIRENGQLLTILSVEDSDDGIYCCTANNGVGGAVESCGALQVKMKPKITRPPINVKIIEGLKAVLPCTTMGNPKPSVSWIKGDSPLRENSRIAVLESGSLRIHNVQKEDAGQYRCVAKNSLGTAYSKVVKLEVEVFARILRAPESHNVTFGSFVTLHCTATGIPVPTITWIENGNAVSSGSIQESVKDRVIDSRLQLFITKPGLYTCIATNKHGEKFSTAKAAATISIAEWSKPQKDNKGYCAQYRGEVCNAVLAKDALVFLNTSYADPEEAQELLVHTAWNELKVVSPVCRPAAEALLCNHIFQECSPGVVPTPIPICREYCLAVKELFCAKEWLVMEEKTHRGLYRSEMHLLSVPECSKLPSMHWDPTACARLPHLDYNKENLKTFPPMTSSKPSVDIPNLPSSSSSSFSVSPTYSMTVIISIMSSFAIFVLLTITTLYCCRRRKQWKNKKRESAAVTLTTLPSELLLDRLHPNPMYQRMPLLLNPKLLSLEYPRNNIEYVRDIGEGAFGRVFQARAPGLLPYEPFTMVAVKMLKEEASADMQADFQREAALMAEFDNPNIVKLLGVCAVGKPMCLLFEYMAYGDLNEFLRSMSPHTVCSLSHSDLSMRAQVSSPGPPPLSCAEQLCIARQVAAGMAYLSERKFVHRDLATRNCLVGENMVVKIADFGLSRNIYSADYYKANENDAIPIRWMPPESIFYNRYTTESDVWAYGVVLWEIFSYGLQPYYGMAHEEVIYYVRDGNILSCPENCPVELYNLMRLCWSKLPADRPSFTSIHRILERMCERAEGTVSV
# Summary of the method: as §1
# SGK(h) = biological target: T3, SGK(h) (Homo sapiens, UniProt O00141)
# T3 sequence (O00141 1-431): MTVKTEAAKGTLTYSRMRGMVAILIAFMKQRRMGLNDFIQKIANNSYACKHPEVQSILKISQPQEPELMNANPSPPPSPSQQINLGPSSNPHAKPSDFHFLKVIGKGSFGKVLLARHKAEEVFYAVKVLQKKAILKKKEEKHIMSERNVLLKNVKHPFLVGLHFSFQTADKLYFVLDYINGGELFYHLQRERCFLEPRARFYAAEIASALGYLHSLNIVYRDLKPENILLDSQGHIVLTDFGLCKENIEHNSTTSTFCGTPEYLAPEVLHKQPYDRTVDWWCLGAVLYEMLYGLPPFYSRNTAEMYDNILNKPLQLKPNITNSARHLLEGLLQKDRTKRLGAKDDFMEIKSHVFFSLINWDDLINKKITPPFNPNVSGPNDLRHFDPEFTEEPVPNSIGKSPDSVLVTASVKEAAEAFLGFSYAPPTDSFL
# Summary of the method: as §1
# F1t4(h) = F1t4(h) (Homo sapiens, UniProt P35916)
# Sequence of F1t4(h) (P35916 25-1363): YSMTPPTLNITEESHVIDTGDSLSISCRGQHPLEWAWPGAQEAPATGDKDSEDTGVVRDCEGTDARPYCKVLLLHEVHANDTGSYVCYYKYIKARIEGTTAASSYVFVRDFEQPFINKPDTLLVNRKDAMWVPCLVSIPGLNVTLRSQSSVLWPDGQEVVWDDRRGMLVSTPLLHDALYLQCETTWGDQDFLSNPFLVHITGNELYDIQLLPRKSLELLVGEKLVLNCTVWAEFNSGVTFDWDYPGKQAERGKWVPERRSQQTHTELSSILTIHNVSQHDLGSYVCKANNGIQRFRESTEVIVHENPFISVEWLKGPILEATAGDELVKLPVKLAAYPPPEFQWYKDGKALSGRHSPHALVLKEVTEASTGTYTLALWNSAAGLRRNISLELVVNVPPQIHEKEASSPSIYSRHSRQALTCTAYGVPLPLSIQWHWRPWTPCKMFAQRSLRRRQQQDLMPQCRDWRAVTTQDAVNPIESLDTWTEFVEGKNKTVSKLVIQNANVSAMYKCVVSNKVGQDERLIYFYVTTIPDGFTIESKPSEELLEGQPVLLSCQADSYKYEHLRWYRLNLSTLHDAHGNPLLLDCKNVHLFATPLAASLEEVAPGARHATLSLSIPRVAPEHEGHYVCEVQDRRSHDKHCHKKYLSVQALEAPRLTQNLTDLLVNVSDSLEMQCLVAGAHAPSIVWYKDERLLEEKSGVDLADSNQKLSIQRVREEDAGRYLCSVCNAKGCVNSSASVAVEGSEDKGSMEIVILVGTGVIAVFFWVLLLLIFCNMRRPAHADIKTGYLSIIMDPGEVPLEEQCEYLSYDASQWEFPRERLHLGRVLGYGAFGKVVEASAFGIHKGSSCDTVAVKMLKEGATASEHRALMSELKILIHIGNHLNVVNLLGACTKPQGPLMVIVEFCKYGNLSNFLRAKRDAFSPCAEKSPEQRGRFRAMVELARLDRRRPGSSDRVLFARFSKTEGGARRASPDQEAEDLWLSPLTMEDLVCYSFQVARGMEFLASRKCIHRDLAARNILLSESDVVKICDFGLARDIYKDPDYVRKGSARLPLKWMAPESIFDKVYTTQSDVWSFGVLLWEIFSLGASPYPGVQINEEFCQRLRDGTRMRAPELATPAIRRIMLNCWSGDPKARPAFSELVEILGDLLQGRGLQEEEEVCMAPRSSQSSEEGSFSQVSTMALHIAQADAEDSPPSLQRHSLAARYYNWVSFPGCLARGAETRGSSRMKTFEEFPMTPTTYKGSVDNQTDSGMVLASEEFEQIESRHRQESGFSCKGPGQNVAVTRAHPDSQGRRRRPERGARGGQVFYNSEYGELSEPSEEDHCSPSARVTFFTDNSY
# Summary of the method: as §1
# Fgr(h) = Fgr(h) (Homo sapiens, UniProt P09769)
# Summary of the method: as §1
# IRR(h) = biological target: T4, IRR(h) (Homo sapiens, UniProt P14616)
# T4 construct: purchased Millipore
# T4 sequence (P14616 27-1297): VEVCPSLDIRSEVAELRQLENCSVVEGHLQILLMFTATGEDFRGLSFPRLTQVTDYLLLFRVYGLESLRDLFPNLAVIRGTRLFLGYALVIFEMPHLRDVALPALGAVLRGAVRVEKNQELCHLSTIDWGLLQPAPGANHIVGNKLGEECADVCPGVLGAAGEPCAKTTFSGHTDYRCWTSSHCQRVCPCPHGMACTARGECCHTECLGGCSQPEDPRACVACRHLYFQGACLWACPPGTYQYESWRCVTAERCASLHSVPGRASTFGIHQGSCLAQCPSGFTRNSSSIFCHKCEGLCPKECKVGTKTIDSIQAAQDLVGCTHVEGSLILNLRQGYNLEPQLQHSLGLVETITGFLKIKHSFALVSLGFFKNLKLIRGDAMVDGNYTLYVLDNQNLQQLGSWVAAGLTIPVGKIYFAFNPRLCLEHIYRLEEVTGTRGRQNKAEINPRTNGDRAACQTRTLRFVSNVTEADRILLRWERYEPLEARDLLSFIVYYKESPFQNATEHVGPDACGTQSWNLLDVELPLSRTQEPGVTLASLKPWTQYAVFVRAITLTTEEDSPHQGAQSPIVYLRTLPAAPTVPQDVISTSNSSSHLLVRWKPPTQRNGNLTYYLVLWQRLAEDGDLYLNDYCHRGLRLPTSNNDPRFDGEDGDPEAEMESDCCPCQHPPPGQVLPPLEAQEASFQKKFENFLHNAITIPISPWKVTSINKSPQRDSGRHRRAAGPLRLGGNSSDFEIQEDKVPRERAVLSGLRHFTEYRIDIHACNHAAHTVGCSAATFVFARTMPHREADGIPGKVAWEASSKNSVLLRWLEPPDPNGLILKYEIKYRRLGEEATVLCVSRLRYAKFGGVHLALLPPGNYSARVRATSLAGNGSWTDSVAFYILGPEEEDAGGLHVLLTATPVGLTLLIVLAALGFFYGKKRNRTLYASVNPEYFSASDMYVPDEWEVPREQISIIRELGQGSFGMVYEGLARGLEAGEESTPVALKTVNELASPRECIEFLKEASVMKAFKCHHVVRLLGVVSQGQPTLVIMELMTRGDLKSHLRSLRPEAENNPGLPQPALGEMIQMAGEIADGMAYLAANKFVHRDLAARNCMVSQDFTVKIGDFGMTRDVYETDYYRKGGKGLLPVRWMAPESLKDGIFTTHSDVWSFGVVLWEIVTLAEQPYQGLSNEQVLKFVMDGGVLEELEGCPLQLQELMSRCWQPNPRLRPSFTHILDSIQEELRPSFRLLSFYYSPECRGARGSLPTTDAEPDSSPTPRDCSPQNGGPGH
# Summary of the method: as §1
# Flt1(h) = Flt1(h) (Homo sapiens, UniProt P17948)
# Sequence of Flt1(h) (P17948 27-1338): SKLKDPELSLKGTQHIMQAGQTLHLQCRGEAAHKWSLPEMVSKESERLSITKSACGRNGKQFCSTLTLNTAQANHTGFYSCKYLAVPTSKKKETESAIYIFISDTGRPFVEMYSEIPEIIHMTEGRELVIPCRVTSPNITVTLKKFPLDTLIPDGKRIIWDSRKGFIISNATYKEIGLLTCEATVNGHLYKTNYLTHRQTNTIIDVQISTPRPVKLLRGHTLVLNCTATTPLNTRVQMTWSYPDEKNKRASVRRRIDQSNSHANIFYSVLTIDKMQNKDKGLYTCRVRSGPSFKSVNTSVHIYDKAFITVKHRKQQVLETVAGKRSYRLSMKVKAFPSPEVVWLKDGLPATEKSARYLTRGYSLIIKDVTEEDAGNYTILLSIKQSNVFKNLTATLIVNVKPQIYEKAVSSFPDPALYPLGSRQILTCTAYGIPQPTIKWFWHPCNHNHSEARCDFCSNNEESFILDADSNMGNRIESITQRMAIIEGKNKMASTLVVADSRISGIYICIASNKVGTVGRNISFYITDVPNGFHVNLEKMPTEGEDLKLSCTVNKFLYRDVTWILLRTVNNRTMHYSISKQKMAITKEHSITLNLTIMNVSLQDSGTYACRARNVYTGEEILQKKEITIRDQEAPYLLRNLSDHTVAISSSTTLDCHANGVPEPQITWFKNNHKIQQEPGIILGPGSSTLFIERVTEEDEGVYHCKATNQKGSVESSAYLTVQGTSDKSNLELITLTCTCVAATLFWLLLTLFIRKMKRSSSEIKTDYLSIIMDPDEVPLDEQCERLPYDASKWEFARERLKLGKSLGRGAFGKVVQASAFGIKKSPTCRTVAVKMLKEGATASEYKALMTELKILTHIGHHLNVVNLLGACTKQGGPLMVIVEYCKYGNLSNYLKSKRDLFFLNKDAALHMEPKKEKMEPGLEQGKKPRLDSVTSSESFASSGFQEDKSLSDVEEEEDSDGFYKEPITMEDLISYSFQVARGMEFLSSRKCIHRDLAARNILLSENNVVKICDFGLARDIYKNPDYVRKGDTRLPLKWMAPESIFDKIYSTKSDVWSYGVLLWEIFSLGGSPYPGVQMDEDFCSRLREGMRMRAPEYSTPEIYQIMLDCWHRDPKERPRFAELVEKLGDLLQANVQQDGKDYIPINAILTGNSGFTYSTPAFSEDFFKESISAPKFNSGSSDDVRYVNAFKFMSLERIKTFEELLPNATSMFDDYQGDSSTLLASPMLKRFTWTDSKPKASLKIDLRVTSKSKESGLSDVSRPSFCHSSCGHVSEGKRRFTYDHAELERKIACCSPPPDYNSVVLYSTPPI
# Summary of the method: as §1
# PKCη(h) = PKCη(h) (Homo sapiens, UniProt P24723)
# Sequence of PKCη(h) (P24723 whole entry): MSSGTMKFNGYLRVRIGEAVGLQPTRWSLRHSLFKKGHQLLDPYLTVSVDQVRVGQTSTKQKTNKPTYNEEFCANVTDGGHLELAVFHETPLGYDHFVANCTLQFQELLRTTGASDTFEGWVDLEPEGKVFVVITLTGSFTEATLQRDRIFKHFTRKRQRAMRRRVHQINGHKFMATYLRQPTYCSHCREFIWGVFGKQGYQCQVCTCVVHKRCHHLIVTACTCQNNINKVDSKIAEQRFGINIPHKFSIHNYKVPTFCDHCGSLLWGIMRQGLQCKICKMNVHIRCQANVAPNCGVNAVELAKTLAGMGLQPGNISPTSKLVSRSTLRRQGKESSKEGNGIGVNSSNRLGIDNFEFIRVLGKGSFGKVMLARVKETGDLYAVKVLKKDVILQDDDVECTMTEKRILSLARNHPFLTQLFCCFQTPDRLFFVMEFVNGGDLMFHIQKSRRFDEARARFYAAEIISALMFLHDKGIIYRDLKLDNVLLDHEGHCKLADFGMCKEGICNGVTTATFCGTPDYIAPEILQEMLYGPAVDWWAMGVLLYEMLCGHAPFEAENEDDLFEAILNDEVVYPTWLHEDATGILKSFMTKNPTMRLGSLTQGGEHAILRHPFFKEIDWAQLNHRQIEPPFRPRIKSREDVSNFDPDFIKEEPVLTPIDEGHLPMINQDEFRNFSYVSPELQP
# Summary of the method: as §1
Sequence,Tec(h) activated % activity (Tec(h) activated) [%],cSRC(h) % activity (cSRC(h)) [%],MuSK(h) % activity (MuSK(h)) [%],SGK(h) % activity (SGK(h)) [%],F1t4(h) % activity (F1t4(h)) [%],Fgr(h) % activity (Fgr(h)) [%],IRR(h) % activity (IRR(h)) [%],Flt1(h) % activity (Flt1(h)) [%],PKCη(h) % activity (PKCη(h)) [%]
FAKLAARLYRKALARQLGVAA [MMI-0300],56,26,93,48,83,60,8,69,–
HRRIKAWLKKIKALARQLGVAA (Mammalian) [MMI-0500],33,30,27,2,73,–,10,27,45
KAFAKLAARLYRKALARQLGVAA [MMI-0400],29,14,93,54,89,47,8,48,98
YARAAARQARAKALNRQLGVA (Mammalian) [MMI-0200],77,32,–,–,–,71,69,96,101
